The source of these data is patent US20260242478A1 (published 2026).

Assay [1] deals with T1, Anti-PSMA Fab (SEQ ID NOs: 19, 20).
T1 construct: Biotinylated Fab captured on neutravidin coated plates in the phage ELISA; also called 006 PSMA Fab
Description: phage ELISA; biotinylated PSMA Fab on neutravidin plate, bound phage detected with anti-M13 HRP.
Description: (§1) Clonal phage were harvested as crude supernatants and screened via standard ELISAs. […] Prior to the addition of clonal phage. wells were incubated with blocking buffer and PSMA antigen or blocking buffer alone. Without washing or aspirating, clonal phage supernatants were then added to the wells and incubated for a short time. Wells were then washed followed by detection of bound phage using a horse radish conjugated anti-M13 antibody.

For assay [2] the target is unchanged. Description: phage ELISA; PSMA Fab on plate pre-incubated with PSMA antigen as competitor, anti-M13 HRP. Background: In an ELISA, binding on a coated surface is turned into a signal by an enzyme label.
Description: as §1
Assay [3] concerns the target T2, Anti-PSMA Fab (SEQ ID NOs: 19, 20).
T2 construct: Biotinylated and captured on neutravidin coated plates in the phage ELISA; also called 006 PSMA Fab
Briefly: phage binding ELISA; biotinylated anti-PSMA Fab on neutravidin plate, PSMA antigen as competitor, anti-M13 HRP detection.
Description: as §1

Assay [4] has the same target. Briefly: phage binding ELISA; biotinylated anti-PSMA Fab on neutravidin plate, clonal phage supernatant, anti-M13 HRP detection.
Description: as §1
Assay [5] deals with T3, Anti-PSMA Fab (SEQ ID NOs: 19, 20).
T3 construct: also called 006 PSMA Fab
Description: phage ELISA; biotinylated PSMA Fab on neutravidin plate pre-incubated with PSMA antigen as competitor, anti-M13-HRP detection.
Description: as §1

The target is the same in assay [6]. Description: phage ELISA; biotinylated PSMA Fab on neutravidin plate, clonal phage supernatant, anti-M13-HRP detection.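 Also: wells were preincubated with blocking buffer containing PSMA antigen or with blocking buffer only, then phage supernatant was added without washing for a brief incubation.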
Description: as §1

B1: Phage-2122 (peptide)
peptide: VTAWCIPEWMCVGV
notes: Clonal phage of the peptide-180 library
Consider B1, for which the “Phage binding ELISA, Anti-PSMA Fab signal” value in assay [1] was 1.71. Further, the “Phage binding ELISA, Anti-PSMA Fab signal in the presence of PSMA” value (from here on “Phage binding ELISA … of PSMA”) in assay [2] is 0.0929.

B2: Phage-2130 (peptide)
peptide: LVKWCTPPWMCESQ
notes: as for B1
Consider B2, for which the “Phage binding ELISA, Anti-PSMA Fab signal” value in assay [1] turned out to be 1.71. In addition, in assay [2], the “Phage binding ELISA … of PSMA” value is 0.0701.

B3: Phage-2109 (peptide)
peptide: LENWCKPAWMCRGS
For the molecule B3, the “Anti-PSMA Fab signal in the presence of PSMA” value in assay [3] was 0.0678. The “Anti-PSMA Fab (SEQ ID NOs: 19, 20) signal” value in assay [4] was 1.72.

B4: Phage-2134 (peptide)
peptide: EGKWCIPEWMCSAS
Take B4: in assay [5], the “Phage binding ELISA … of PSMA” value is 0.0777. Also, in assay [6], the “Phage binding ELISA, Anti-PSMA Fab (SEQ ID NOs: 19, 20) signal” value was found to be 1.7.

B5: Phage-2110 (peptide)
peptide: FEKWCIPPWMCAVH
Turning to B5, in assay [3], the “Anti-PSMA Fab signal in the presence of PSMA” value was 0.138. Moreover, the “Anti-PSMA Fab (SEQ ID NOs: 19, 20) signal” value in assay [4] is 1.72.

B6: Phage-2126 (peptide)
peptide: SDKWCIPPWMCEVA
notes: as for B1
As to B6, the “Phage binding ELISA, Anti-PSMA Fab signal” value in assay [1] came to 1.71. The “Phage binding ELISA … of PSMA” value in assay [2] was 0.0724.

B7: Phage-2104 (peptide)
peptide: GVNWCIPDWMCVGM
For B7, the “Anti-PSMA Fab signal in the presence of PSMA” value in assay [3] amounted to 0.0692. Also, in assay [4], the “Anti-PSMA Fab (SEQ ID NOs: 19, 20) signal” value is 1.73.

B8: Phage-2103 (peptide)
peptide: SENWCIPSWMCQGF
Consider B8, for which, in assay [3], the “Anti-PSMA Fab signal in the presence of PSMA” value was determined as 0.0813. In addition, the “Anti-PSMA Fab (SEQ ID NOs: 19, 20) signal” value in assay [4] was found to be 1.73.

B9: Phage-2129 (peptide)
peptide: PLPWCIPVWMCSMI
notes: as for B1
As to B9, in assay [1], the “Phage binding ELISA, Anti-PSMA Fab signal” value was 1.71. For the same molecule, the “Phage binding ELISA … of PSMA” value in assay [2] turned out to be 0.161.

B10: Phage-2124 (peptide)
peptide: ILKACIPDWMCEGS
notes: as for B1
With B10, the “Phage binding ELISA, Anti-PSMA Fab signal” value in assay [1] was 1.71. In addition, the “Phage binding ELISA … of PSMA” value in assay [2] was found to be 0.0604.

B11: Phage-2117 (peptide)
peptide: EIKWCVPQWMCENQ
notes: as for B1
On to B11, for which the “Phage binding ELISA, Anti-PSMA Fab signal” value in assay [1] came to 1.72. In assay [2], the “Phage binding ELISA … of PSMA” value is 0.0643.

B12: Phage-2114 (peptide)
peptide: SERWCIPEWMCSMP
For B12, the “Anti-PSMA Fab signal in the presence of PSMA” value in assay [3] was 0.0625. For the same molecule, the “Anti-PSMA Fab (SEQ ID NOs: 19, 20) signal” value in assay [4] stood at 1.72.

B13: Phage-2121 (peptide)
peptide: AEKWCIPPWMCEWV
notes: as for B1
As to B13, the “Phage binding ELISA, Anti-PSMA Fab signal” value in assay [1] was found to be 1.71. Moreover, in assay [2], the “Phage binding ELISA … of PSMA” value was found to be 0.105.

B14: Phage-2112 (peptide)
peptide: VDPLCRPAWMCFGM
On to B14, for which, in assay [3], the “Anti-PSMA Fab signal in the presence of PSMA” value is 0.0801. Also, in assay [4], the “Anti-PSMA Fab (SEQ ID NOs: 19, 20) signal” value was found to be 1.72.

B15: Phage-2133 (peptide)
peptide: FEMLCTPPWMCVGL
Consider B15, for which the “Phage binding ELISA … of PSMA” value in assay [5] came to 0.0639. The “Phage binding ELISA, Anti-PSMA Fab (SEQ ID NOs: 19, 20) signal” value in assay [6] stood at 1.7.

B16: Phage-2123 (peptide)
peptide: EIKWCRPGWMCKVR
notes: as for B1
For the molecule B16, in assay [1], the “Phage binding ELISA, Anti-PSMA Fab signal” value was 1.71. For the same molecule, the “Phage binding ELISA … of PSMA” value in assay [2] was found to be 0.0583.

B17: Phage-2131 (peptide)
peptide: LMKWCIPDWMCSHV
notes: as for B1
As for B17, the “Phage binding ELISA, Anti-PSMA Fab signal” value in assay [1] came out at 1.71. In addition, the “Phage binding ELISA … of PSMA” value in assay [2] came to 0.0763.

B18: Phage-2120 (peptide)
peptide: EIHLCKPPWMCDWL
notes: as for B1
For the molecule B18, the “Phage binding ELISA, Anti-PSMA Fab signal” value in assay [1] stood at 1.72. In assay [2], the “Phage binding ELISA … of PSMA” value is 0.109.

B19: Phage-2107 (peptide)
peptide: VHNWCIPSWMCEGL
Take B19: in assay [3], the “Anti-PSMA Fab signal in the presence of PSMA” value came to 0.0717. For the same molecule, the “Anti-PSMA Fab (SEQ ID NOs: 19, 20) signal” value in assay [4] came out at 1.73.

B20: Phage-2102 (peptide)
peptide: MERWCIPEWMCATT
As to B20, the “Anti-PSMA Fab signal in the presence of PSMA” value in assay [3] turned out to be 0.0637. Further, the “Anti-PSMA Fab (SEQ ID NOs: 19, 20) signal” value in assay [4] came out at 1.73.

B21: Phage-2128 (peptide)
peptide: DGLLCRPLWMCQFL
notes: as for B1
As to B21, the “Phage binding ELISA, Anti-PSMA Fab signal” value in assay [1] was determined as 1.71. Further, the “Phage binding ELISA … of PSMA” value in assay [2] amounted to 0.0771.

B22: Phage-2115 (peptide)
peptide: GEIWCIPRWMCESF
Take B22: in assay [3], the “Anti-PSMA Fab signal in the presence of PSMA” value turned out to be 0.0672. Further, the “Anti-PSMA Fab (SEQ ID NOs: 19, 20) signal” value in assay [4] amounted to 1.72.

B23: Phage-2108 (peptide)
peptide: SAMLCKPQWMCDGF
B23: the “Anti-PSMA Fab signal in the presence of PSMA” value in assay [3] stood at 0.0821. Besides, the “Anti-PSMA Fab (SEQ ID NOs: 19, 20) signal” value in assay [4] was found to be 1.72.

B24: Phage-2111 (peptide)
peptide: VVKWCSPPWMCDFL
Consider B24, for which the “Anti-PSMA Fab signal in the presence of PSMA” value in assay [3] was 0.0713. The “Anti-PSMA Fab (SEQ ID NOs: 19, 20) signal” value in assay [4] came to 1.72.

B25: Phage-2119 (peptide)
peptide: YAKWCIPEWMCAVS
notes: as for B1
For B25, in assay [1], the “Phage binding ELISA, Anti-PSMA Fab signal” value is 1.72. For the same molecule, the “Phage binding ELISA … of PSMA” value in assay [2] came out at 0.12.

B26: Phage-2127 (peptide)
peptide: WDKWCIPEWMCVTQ
notes: as for B1
Regarding B26, the “Phage binding ELISA, Anti-PSMA Fab signal” value in assay [1] is 1.71. For the same molecule, the “Phage binding ELISA … of PSMA” value in assay [2] is 0.1.

B27: Phage-2105 (peptide)
peptide: EWKWCTPSWMCEDA
As for B27, the “Anti-PSMA Fab signal in the presence of PSMA” value in assay [3] stood at 0.0652. In addition, the “Anti-PSMA Fab (SEQ ID NOs: 19, 20) signal” value in assay [4] was 1.73.

B28: Phage-2125 (peptide)
peptide: EFKWCTPPWMCQWD
notes: as for B1
B28: the “Phage binding ELISA, Anti-PSMA Fab signal” value in assay [1] is 1.71. Besides, the “Phage binding ELISA … of PSMA” value in assay [2] amounted to 0.101.

B29: Phage-2116 (peptide)
peptide: WENWCTPSWMCSVL
On to B29, for which, in assay [3], the “Anti-PSMA Fab signal in the presence of PSMA” value is 0.118. In addition, the “Anti-PSMA Fab (SEQ ID NOs: 19, 20) signal” value in assay [4] was determined as 1.72.

B30: Phage-2106 (peptide)
peptide: QEKWCIPMWMCESL
On to B30, for which the “Anti-PSMA Fab signal in the presence of PSMA” value in assay [3] is 0.0796. The “Anti-PSMA Fab (SEQ ID NOs: 19, 20) signal” value in assay [4] was 1.73.

B31: Phage-2113 (peptide)
peptide: MNTWCKPAWMCEGL
As for B31, in assay [3], the “Anti-PSMA Fab signal in the presence of PSMA” value turned out to be 0.127. Further, the “Anti-PSMA Fab (SEQ ID NOs: 19, 20) signal” value in assay [4] came out at 1.72.

B32: Phage-2118 (peptide)
peptide: EMIWCRPAWMCEGI
notes: as for B1
As to B32, in assay [1], the “Phage binding ELISA, Anti-PSMA Fab signal” value is 1.72. Further, the “Phage binding ELISA … of PSMA” value in assay [2] came out at 0.0702.

B33: Phage-2132 (peptide)
peptide: DANWCKPTWMCAGF
Regarding B33, in assay [5], the “Phage binding ELISA … of PSMA” value came out at 0.109. Also, the “Phage binding ELISA, Anti-PSMA Fab (SEQ ID NOs: 19, 20) signal” value in assay [6] came to 1.7.
